This note sets out measurements from IntAct's records for PubMed 29892012.

Some targets named below: ar6p1_human ARL6IP1 (UniProt Q15041); nup62_human NUP62 (UniProt P37198); txlna_human TXLNA (UniProt P40222).
For another test, the target named is T1, bend5_human BEND5 (UniProt Q7L4P6).
T1 sequence: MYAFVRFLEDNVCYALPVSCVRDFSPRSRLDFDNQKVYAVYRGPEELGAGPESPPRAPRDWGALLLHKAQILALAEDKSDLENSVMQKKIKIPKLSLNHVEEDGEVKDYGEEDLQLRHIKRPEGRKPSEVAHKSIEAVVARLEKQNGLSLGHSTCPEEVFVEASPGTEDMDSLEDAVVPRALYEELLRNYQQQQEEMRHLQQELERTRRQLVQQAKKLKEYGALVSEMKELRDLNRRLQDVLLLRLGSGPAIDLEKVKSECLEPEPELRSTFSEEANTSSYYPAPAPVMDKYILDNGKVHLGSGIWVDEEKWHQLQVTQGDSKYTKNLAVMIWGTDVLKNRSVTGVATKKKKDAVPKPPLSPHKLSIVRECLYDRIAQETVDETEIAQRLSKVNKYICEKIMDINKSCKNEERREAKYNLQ

Another test deals with T2, phs_human PCBD1 (UniProt P61457).
T2 sequence: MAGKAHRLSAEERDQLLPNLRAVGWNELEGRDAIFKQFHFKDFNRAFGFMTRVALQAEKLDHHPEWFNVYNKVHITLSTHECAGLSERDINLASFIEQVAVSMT

For another test, the target named is T3, prps1_human PRPS1 (UniProt P60891).
T3 sequence: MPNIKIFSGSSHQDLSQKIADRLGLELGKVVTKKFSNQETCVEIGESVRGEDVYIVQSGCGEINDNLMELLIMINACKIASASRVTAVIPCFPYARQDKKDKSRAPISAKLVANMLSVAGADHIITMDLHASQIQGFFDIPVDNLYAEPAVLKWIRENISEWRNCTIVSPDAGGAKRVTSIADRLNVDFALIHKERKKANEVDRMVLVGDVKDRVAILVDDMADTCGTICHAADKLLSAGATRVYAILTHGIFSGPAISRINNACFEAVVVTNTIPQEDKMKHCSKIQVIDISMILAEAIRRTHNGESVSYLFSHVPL

A further test addresses T4, tle5_human TLE5 (UniProt Q08117).
T4 sequence: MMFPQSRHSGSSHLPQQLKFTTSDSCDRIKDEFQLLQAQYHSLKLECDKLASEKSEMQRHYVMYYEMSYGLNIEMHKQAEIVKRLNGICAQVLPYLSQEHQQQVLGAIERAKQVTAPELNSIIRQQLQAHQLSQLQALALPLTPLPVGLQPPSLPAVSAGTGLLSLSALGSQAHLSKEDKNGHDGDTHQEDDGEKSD

For a further test, the target named is T5, goga2_human GOLGA2 (UniProt Q08379).
T5 sequence: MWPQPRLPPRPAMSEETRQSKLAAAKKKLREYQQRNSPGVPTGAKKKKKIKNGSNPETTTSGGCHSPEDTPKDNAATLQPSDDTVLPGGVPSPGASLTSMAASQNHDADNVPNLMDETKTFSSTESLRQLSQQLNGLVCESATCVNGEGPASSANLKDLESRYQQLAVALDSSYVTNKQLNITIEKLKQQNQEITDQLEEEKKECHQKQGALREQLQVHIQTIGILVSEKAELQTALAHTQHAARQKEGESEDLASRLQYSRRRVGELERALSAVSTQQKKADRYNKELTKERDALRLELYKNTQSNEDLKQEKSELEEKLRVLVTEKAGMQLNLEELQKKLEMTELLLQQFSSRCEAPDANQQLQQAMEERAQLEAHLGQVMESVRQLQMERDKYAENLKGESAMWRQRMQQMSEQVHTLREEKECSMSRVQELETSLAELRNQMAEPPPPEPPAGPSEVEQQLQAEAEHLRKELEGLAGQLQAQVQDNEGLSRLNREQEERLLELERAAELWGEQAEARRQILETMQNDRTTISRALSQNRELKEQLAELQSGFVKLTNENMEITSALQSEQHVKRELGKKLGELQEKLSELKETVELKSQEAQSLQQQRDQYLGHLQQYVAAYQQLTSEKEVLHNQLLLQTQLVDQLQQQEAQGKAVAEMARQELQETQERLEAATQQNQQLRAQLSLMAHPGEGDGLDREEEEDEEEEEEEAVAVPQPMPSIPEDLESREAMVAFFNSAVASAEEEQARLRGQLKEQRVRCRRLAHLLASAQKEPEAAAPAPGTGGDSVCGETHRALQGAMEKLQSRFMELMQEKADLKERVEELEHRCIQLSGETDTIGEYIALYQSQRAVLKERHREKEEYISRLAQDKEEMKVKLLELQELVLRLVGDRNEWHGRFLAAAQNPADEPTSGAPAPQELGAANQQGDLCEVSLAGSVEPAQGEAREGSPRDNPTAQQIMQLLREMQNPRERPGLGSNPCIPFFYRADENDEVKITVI

Another test concerns the target T6, lonf1_human LONRF1 (UniProt Q17RB8).
T6 sequence: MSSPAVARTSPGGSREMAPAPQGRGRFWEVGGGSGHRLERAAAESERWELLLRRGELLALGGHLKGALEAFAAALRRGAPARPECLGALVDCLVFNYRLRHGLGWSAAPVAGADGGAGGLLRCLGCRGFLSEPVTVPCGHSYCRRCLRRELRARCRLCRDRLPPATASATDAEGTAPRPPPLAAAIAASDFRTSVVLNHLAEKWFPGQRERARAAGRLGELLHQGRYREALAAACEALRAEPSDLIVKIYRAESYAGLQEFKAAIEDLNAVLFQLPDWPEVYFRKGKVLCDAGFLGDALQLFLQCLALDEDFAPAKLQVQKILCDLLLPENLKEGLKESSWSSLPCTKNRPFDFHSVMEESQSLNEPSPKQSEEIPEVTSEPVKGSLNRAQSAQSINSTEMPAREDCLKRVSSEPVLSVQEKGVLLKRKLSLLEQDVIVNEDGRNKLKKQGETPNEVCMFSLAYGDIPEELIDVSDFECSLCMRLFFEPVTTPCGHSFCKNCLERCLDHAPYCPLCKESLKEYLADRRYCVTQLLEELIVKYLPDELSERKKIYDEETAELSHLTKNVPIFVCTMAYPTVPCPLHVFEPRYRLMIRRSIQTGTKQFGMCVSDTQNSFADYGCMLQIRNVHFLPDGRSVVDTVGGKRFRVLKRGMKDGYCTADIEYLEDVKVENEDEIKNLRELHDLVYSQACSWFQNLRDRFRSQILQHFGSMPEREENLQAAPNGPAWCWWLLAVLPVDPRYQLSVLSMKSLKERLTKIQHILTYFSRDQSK

Sequence of ar6p1_human ARL6IP1 (Q15041 whole entry): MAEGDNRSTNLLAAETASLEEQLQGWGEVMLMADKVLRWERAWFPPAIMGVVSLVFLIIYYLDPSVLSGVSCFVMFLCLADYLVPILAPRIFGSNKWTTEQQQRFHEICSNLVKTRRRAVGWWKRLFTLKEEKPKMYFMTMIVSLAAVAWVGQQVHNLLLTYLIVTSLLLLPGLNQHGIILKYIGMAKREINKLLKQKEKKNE
Sequence of nup62_human NUP62 (P37198 whole entry): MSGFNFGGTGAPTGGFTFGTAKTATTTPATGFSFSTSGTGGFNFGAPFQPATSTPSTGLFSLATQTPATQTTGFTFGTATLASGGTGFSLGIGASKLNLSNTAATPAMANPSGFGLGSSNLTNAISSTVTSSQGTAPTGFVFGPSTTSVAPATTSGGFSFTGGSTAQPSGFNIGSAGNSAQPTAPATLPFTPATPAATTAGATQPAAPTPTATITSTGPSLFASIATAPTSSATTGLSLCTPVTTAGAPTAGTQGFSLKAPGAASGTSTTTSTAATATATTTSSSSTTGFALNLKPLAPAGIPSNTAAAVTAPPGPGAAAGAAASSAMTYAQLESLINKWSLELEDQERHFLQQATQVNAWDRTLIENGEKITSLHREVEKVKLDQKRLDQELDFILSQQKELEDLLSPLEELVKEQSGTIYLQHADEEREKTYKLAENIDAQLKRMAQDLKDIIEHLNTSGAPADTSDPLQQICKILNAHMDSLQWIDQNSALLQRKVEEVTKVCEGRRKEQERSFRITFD
Sequence of txlna_human TXLNA (P40222 whole entry): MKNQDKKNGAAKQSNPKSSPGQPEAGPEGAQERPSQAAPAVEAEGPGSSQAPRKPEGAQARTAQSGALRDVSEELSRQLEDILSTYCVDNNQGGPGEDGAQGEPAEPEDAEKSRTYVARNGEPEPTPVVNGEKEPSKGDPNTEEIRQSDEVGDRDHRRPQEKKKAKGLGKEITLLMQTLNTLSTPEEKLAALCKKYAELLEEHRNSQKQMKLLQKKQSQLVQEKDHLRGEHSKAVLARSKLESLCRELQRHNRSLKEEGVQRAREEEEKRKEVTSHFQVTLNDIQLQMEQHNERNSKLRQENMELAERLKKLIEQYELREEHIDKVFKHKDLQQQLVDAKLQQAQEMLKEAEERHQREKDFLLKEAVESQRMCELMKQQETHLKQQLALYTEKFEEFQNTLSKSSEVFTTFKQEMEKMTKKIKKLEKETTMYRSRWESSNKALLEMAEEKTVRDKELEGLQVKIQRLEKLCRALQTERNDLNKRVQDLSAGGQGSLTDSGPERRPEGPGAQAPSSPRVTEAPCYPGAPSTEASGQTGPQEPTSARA

Regarding “Golgi reassembly-stacking protein 2 (Homo sapiens) (from UniProt Q9H8Y8) L320R”, the “effect of a mutation on the interaction” value with bend5_human BEND5 is listed as “with no effect”; in the test with phs_human PCBD1 it was “with no effect”; in the test with ar6p1_human ARL6IP1, “with no effect”; with nup62_human NUP62 it was “disrupting interaction strength”; in the test with prps1_human PRPS1, “with no effect”; with txlna_human TXLNA it was “with no effect”. Further, the “effect of a mutation on the interaction” value with tle5_human TLE5 is reported as “disrupting interaction strength”; in the test with goga2_human GOLGA2, “with no effect”; with lonf1_human LONRF1 it was “with no effect”.
